According to patent US12091446 (NATIONAL TECHNOLOGY AND ENGINEERING SOLUTIONS OF SANDIA, dated 2024):
Changes are numbered by the printed parent chain. Like-named read-outs stand apart in the source and are kept apart here.

B1: BP2A6 Nb-huFc (Fc fusion)
chain: EVQLQASGGGFVQPGGSLRLSCAASGQTFSHYIMGWFRQAPGKEREFVSAISAGQGHATYYADSVKGRFTISRDNSKNTVYLQMNSLRAEDTATYYCAKYQDTIAPLYWGQGTQVTVSS
B2: AP1D4 Nb-huFc (Fc fusion)
chain: EVQLQASGGGFVQPGGSLRLSCAASGHTFDAHRMGWFRQAPGKEREFVSAISSWGQSSTYYADSVKGRFTISRDNSKNTVYLQMNSLRAEDTATYYCAQTDEGNQYVYWGQGTQVTVSS
B3: KP1C9 Nb-huFc (Fc fusion)
chain: EVQLQASGGGFVQPGGSLRLSCAASGRTFDAYSMGWFRQAPGKEREFVSAISSWSDDWTAYADSVKGRFTISRDNSKNTVYLQMNSLRAEDTATYYCALQNTKEDRLYWGQGTQVTVSS
B4: AP1C3 Nb-huFc (Fc fusion)
chain: B3 chain with F29Y, D30R, A31G, L99W, N101Y, T102I, K103D, D105I, R106Q, L107Y
B5: DP4F2 Nb-huFc (Fc fusion)
chain: EVQLQASGGGFVQPGGSLRLSCAASGTTYSERVMGWFRQAPGKEREFVSAISSGQSDQTYYYADSVKGRFTISRDNSKNTVYLQMNSLRAEDTATYYCAPFAGDANLPREWYWGQGTQVTVSSA
B6: BP1B1 Nb-huFc (Fc fusion)
chain: EVQLQASGGGFVQPGGSLRLSCAASGRTFSGYIMGWFRQAPGKEREFVSAISQGDSYASYYADSVKGRFTISRDNSKNTVYLQMNSLRAEDTATYYCALYDINTVPYYWGQGTQVTVSS
B7: KP1B5 Nb-huFc (Fc fusion)
chain: EVQLQASGGGFVQPGGSLRLSCAASGFTFDWSAMGWFRQAPGKEREFVSAISSSTSESTTYADSVKGRFTISRDNSKNTVYLQMNSLRAEDTATYYCATYYGGKTVEQDFYWGQGTQVTVSS
B8: AP1A5 Nb-huFc (Fc fusion)
chain: EVQLQASGGGFVQPGGSLRLSCAASGSTASHYTMGWFRQAPGKEREFVSAISSGRDHAKQYADSVKGRFTISRDNSKNTVYLQMNSLRAEDTATYYCAYEEINATQKDTLYWGQGTQVTVSS
B9: BP2A3 Nb-huFc (Fc fusion)
chain: EVQLQASGGGFVQPGGSLRLSCAASGRTFSAYSMGWFRQAPGKEREFVSAISAGDGAASYYADSVKGRFTISRDNSKNTVYLQMNSLRAEDTATYYCAHYYTTSATLDYAYWGQGTQVTVSS
B10: AP1B6 Nb-huFc (Fc fusion)
chain: EVQLQASGGGFVQPGGSLRLSCAASGSAFQIYAMGWFRQAPGKEREFVSAISSTDSETDHYADSVKGRFTISRDNSKNTVYLQMNSLRAEDTATYYCAVNGFDYAHSKAGPQVYWGQGTQVTVSS
B11: KP2C6 Nb-huFc (Fc fusion)
chain: EVQLQASGGGFVQPGGSLRLSCAASGRTFTSFHMGWFRQAPGKEREFVSAISSGDDGTQYYADSVKGRFTISRDNSKNTVYLQMNSLRAEDTATYYCAAYTTTTVPQYWGQGTQVTVSS
B12: BP2H9 Nb-huFc (Fc fusion)
chain: EVQLQASGGGFVQPGGSLRLSCAASGQTFTHVPMGWFRQAPGKEREFVSAISDTSGFETYYADSVKGRFTISRDNSKNTVYLQMNSLRAEDTATYYCAWAYDQFNWNYWGQGTQVTVSS
B13: BP1A10 Nb-huFc (Fc fusion)
chain: EVQLQASGGGFVQPGGSLRLSCAASGQPSDRYIMGWFRQAPGKEREFVSAISQGAANKTAYADSVKGRFTISRDNSKNTVYLQMNSLRAEDTATYYCATHFNWQNYSYWGQGTQVTVSS

Key:
[1] = target: T1, SARS-COV-2 Wuhan (WT) RBD (SARS-COV-2, UniProt P0DTC2 319-541)
[2] = target: T1, SARS-COV-2 Wuhan (WT) RBD; remark: listed apart in the source
[3] = target: T2, SARS-COV-2 spike, Beta variant (B.1.351) (SARS-COV-2, UniProt P0DTC2 14-1273); test: cell-based or functional assay
[4] = target: T3, SARS-COV-2 spike, Gamma variant (P.1) (SARS-COV-2, UniProt P0DTC2 14-1273); test: cell-based or functional assay
[5] = target: T4, SARS-COV-2 spike, Delta variant (B.1.617.2) (SARS-COV-2, UniProt P0DTC2 14-1273); test: cell-based or functional assay
[6] = target: T5, SARS-COV-2 spike, Lambda variant (C.37) (SARS-COV-2, UniProt P0DTC2 14-1273); test: cell-based or functional assay
[7] = target: T6, SARS-COV-2 spike, Mu variant (B.1.621) (SARS-COV-2, UniProt P0DTC2 14-1273); test: cell-based or functional assay
[8] = target: T7, SARS-COV-2 spike, Omicron variant (BA.1) (SARS-COV-2, UniProt P0DTC2 14-1273); test: cell-based or functional assay
SARS-COV-2 Delta RBD [9] = target: T8, SARS-COV-2 Delta RBD (SARS-COV-2, UniProt P0DTC2 319-541); test: ELISA titration (A450 against Nb-hFc ug/mL) on SARS-CoV-2 Delta RBD
T8 construct: domain: RBD; also called SARS-COV-2 Delta RBD variant

SARS-COV-2 Delta RBD [10] = target: T8, SARS-COV-2 Delta RBD
[11] = target: T2, SARS-COV-2 spike, Beta variant (B.1.351); test: cell-based or functional assay; remark: listed apart in the source
[12] = target: T3, SARS-COV-2 spike, Gamma variant (P.1); test: cell-based or functional assay; remark: listed apart in the source
[13] = target: T4, SARS-COV-2 spike, Delta variant …; test: cell-based or functional assay; remark: listed apart in the source
[14] = target: T5, SARS-COV-2 spike, Lambda variant (C.37); test: cell-based or functional assay; remark: listed apart in the source
[15] = target: T6, SARS-COV-2 spike, Mu variant (B.1.621); test: cell-based or functional assay; remark: listed apart in the source
[16] = target: T1, SARS-COV-2 Wuhan (WT) RBD; remark: listed apart in the source
[17] = target: T7, SARS-COV-2 spike, Omicron variant (BA.1); test: cell-based or functional assay; remark: listed apart in the source

Row | Binder | Kd [1] [nM] | Kd [2] [nM] | EC50, neutralization of spike pseudotyped virus [3] [nM] | EC50, neutralization of spike pseudotyped virus [4] [nM] | EC50, neutralization of spike pseudotyped virus [5] [nM] | EC50, neutralization of spike pseudotyped virus [6] [nM] | EC50, neutralization of spike pseudotyped virus [7] [nM] | EC50, neutralization of spike pseudotyped virus [8] [nM] | binding result (SARS-COV-2 Delta RBD [9]) | Kd (SARS-COV-2 Delta RBD [10]) [nM] | EC50, neutralization of spike pseudotyped virus [11] [nM] | EC50, neutralization of spike pseudotyped virus [12] [nM] | EC50, neutralization of spike pseudotyped virus [13] [nM] | EC50, neutralization of spike pseudotyped virus [14] [nM] | EC50, neutralization of spike pseudotyped virus [15] [nM] | Kd [16] [nM] | EC50, neutralization of spike pseudotyped virus [17] [nM]
1 | B1 | 0.0766 | 149 | 0.34 | 0.63 | 875 | 883 | 2.53 | 43.3 | no binding (tested: 10 ug/mL) | – | – | – | – | – | – | – | –
2 | B2 | 1.09 | – | 627 | 13.5 | 758 | 490 | 1.92 | – | – | – | – | – | – | – | – | – | –
3 | B3 | 0.119 | – | – | – | – | – | – | – | – | 25.5 | 203 | 80.2 | 1.22 | 0.13 | 2.02 | – | –
4 | B4 | 0.133 | – | 338 | 1.07 | 191 | 0.02 | 0.83 | – | – | 33.3 | – | – | – | – | – | – | –
5 | B5 | 9.51 | – | – | – | – | – | – | – | – | 1.91 | – | – | 26.8 | – | 25.1 | – | –
6 | B6 | 0.266 | – | – | – | – | – | – | – | no binding (tested: 10 ug/mL) | – | 3.5 | 3.68 | – | – | 6.97 | 371 | 403
7 | B7 | – | – | – | – | – | – | – | – | – | – | 482 | 214 | 324 | 472 | 367 | – | –
8 | B8 | 1.28 | – | 198 | 533 | 73.3 | 79.1 | 7.18 | – | no binding (tested: 10 ug/mL) | – | – | – | – | – | – | – | –
9 | B9 | 0.315 | – | – | – | – | – | – | – | no binding (tested: 10 ug/mL) | – | 4.44 | 3.73 | – | – | 466 | – | –
10 | B10 | 0.585 | – | 0.12 | 0.26 | 586 | 414 | 1.54 | – | no binding (tested: 10 ug/mL) | – | – | – | – | – | – | – | –
11 | B11 | 4.46 | – | – | – | – | – | – | – | – | 62.6 | 411 | 408 | 18.3 | 612 | 305 | – | –
12 | B12 | – | – | – | – | – | – | – | – | – | – | 0.21 | 0.26 | – | – | 922 | – | –
13 | B13 | 0.548 | – | 4.32 | 3.95 | – | – | 26.1 | – | – | – | – | – | – | – | – | – | –
